Assay results: patent US20080274967
Changes are numbered by the printed parent chain.

Assays:
[1] = system: T1, PEDF AAA variant (S24,114, 227A)
T1 sequence: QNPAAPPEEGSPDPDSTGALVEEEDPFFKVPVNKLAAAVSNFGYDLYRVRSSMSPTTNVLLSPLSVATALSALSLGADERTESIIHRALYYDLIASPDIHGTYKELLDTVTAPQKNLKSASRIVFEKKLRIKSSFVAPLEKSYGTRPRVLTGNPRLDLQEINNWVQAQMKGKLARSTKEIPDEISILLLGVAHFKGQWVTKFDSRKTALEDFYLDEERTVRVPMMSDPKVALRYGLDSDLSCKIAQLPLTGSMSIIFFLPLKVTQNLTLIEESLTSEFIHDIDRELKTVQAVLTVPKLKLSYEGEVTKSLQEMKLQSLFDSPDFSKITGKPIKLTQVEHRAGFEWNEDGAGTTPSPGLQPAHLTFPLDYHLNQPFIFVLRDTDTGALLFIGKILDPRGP

[2] = system: T2, PEDF EEE variant (S24,114, 227E)
T2 sequence: T1 sequence with A5E, A95E, A208E

[3] = system: T3, PEDF EEA variant (S24,114E, 227A)
T3 sequence: T1 sequence with A5E, A95E

PEDF S24,114E variant = system: T4, PEDF S24,114E variant
T4 sequence: T1 sequence with A5E, A95E, A208S

[4] = system: T5, Recombinant human pigment epithelium derived factor (rPEDF)
T5 sequence: T1 sequence with A5S, A95S, A208S

[5] = system: T6, PEDF AAE variant (S24,114A, 227E)
T6 sequence: T1 sequence with A208E

Catalytic subunit of protein kinase A (PKA)
in vitro phosphorylation by PKA [1]: none of the triple mutants was phosphorylated by PKA | in vitro phosphorylation by PKA [2]: none of the triple mutants was phosphorylated by PKA | in vitro phosphorylation by PKA [3]: none of the triple mutants was phosphorylated by PKA | in vitro phosphorylation by PKA after brief heat treatment of the variant (PEDF S24,114E variant): a brief heat treatment ... restored its phosphorylation by PKA | in vitro phosphorylation by PKA ([γ32P]-ATP, SDS-PAGE, autoradiography) [4]: rPEDF served as a good substrate to PKA | in vitro phosphorylation by PKA [5]: none of the triple mutants was phosphorylated by PKA
